Values quoted from earlier work as cited in article PMC7811009, “Oxytocin modulates local topography of human functional connectome in healthy men at rest” (Communications Biology, 2021).

Key:
[1] = intravenous infusion, primates; cited from earlier work
Text: It is not yet clear which precise mechanisms mediate the effects of intravenous oxytocin on brain function. […] At least three mechanisms have been postulated. First, it is possible that the direct peripheral effects of oxytocin on oxytocin receptors expressed in vegetative territories, such as the heart, may be an indirect source of changes in the brain.

[2] = rhesus monkeys, cited from earlier work
Text: Our findings support our previous observations that increases in oxytocin in systemic circulation cannot fully account for the changes in rCBF observed after intranasal oxytocin[11] and lend support to the contribution of nose-to-brain pathways to the effects of intranasal oxytocin on brain function. However, they cannot highlight the precise mechanisms of transport underlying its functional effects. We believe that most evidence to date concurs on the idea that oxytocin, when administered intranasally, may diffuse from the olfactory and respiratory epithelia in the middle and upper poster ...

labelled synthetic oxytocin: labelled synthetic oxytocin given intravenously or intranasally to primates / rhesus monkeys in cited studies
Synthetic oxytocin levels in the CSF [1]: increased synthetic oxytocin levels in the CSF | Brain regions reached ([2]; administered intranasally): reaches several brain regions (orbitofrontal cortex, striatum, thalamus and brainstem) | Labelled oxytocin in brain regions (orbitofrontal cortex, striatum, thalamus and brainstem) ([2]; same doses administered intravenously): No detectable amounts
